This series can be described thus: SEC-HPLC percent free monomer in solution. In kind it is physicochemical. On the procedure:
Functional assays 1. Reduction state of ORP100S was quantified using DTNB which reacts with free SH groups resulting in a yellow color change at 412 nm. Fifty microliters of 2.5 mM rhTrx was added to a 96-well plate, followed by 175 microliters of sample buffer and 25 microliters of 6 mM DTNB. After reactions were initiated by the addition of DTNB, change in kinetic absorbance at 412 nm due to DTNB reduction was monitored spectrophotometrically at 30° C. ORP100S concentration was determined by A280 (Nanodrop) using the extinction coefficient of human Trx-1 (7,000). The actual concentrations of free sulfhydryl groups were calculated based on the absorbance at 412 nm and the extinction coefficient of DTNB (14,150) in order to determine the reduction state as percentage of free sulfhydryl. […] 2. Percent of free monomer ORP100S in solution was determined using SEC. Samples were analyzed on a BioBasic S-300 250×4.6 column (Thermo Scientific) run on an Agilent 1100 HPLC system. The SEC-HPLC mobile phase buffer consisted of 40 mM ammonium acetate (pH 5.5), 2 mM EDTA and 450 mM NaCl. Low pH minimized dimerization while the 450 mM NaCl concentration improved resolution. The flow rate was 0.35 mL/min and absorbance was monitored at 280 nm. The length of each run was 20 minutes. The ORP100S monomer percentage was determined by integration of the area under the peak of the monomeric fraction divided by the total area under the curve of the chromatogram. 3. Disulfide bond reduction activity of ORP100S was quantified by assaying the reduction state of a small protein (human insulin) which in its heterodimeric form contains two intermolecular and one intramolecular disulfide, all three of which are known to be suitable thioredoxin substrates. Insulin reduction has classically been used to quantify thioredoxin activity by absorbance change following addition of NADPH and TrxR (Holmgren A., 1979, Thioredoxin catalyzes the reduction of insulin disulfides by dithiothreitol and dihydrolipoamide, J Biol Chem 254:9627-32). Such an approach is not suitable for monothiol C35S thioredoxins ORP-100 and ORP100S due to 1) the lack of cycling resulting from stoichiometric covalent linkage to the disulfide bond substrate and 2) the inability of NADPH and TrxR to reduce Cys32 of the oxidized monothiol Trx active site. Consequently, a new assay was developed based on the use of reverse-phase (RP) HPLC to monitor the rate of conversion of disulfide-bonded insulin heterodimers to monomeric forms. The two chains of human insulin have a total of six Cys residues which form three disulfide bonds in its mature structure. When ORP100S in the reduced form is incubated with dimeric insulin it reacts with these disulfide bonds to disrupt them, simultaneously forming covalent linkages to the ORP100S Cys32. […] The ORP100S samples were incubated with 10 mg/mL insulin for various time points (0-90 min) and the reactions were stopped by addition of iodacetic acid (IA) and trifluoroacetic acid (TFA). Relative activity at each time point was determined from changes in the area under the insulin heterodimer peak following separation over RP-HPLC (Agilent 1100) using an Intrada WP-RP 50×3 (Imtakt) column. Buffer A was 0.1% TFA and Buffer B was 0.1% TFA in acetonitrile. The gradient was […] in 5 min followed by 30 to 60% B in 45 min, then 60 to 80% B for an additional 5 min. The flow rate was 0.2 mL/min and absorbance was measured at 280 nm. In order to evaluate the change in the intact insulin molecule a time 0 baseline was first established using 1 M IA and 0.1% TFA without the addition of ORP100S. The area under the intact insulin heterodimer peak was then determined and set as equivalent to 100%. After the reaction with ORP100S the area of the intact insulin peak (corresponding to retention time) was measured. The percent reduction in intact insulin was then calculated from the decrease in the area following reduction divided by the area at time 0 multiplied by 100.

Setting [1] is: 70 mg/mL in PBS, 25° C., red fraction removed.
[2] abbreviates: 80 mg/mL in PBS, 25° C., red fraction removed.
[3] abbreviates: 90 mg/mL in PBS, 25° C., red fraction removed.
Where [4] appears, read: 100 mg/mL in PBS, 25° C., red fraction removed.
The mark [5] stands for this setting: 110 mg/mL in PBS, 25° C., red fraction removed.

B1: ORP100S: thioredoxin with monothiol active site, Cys35 and non-active Cys 62, 69 and 73 substituted with serine (SEQ ID NO:29) (protein)
chain: MVKQIESKTAFQEALDAAGDKLVVVDFSATWCGPSKMIKPFFHSLSEKYSNVIFLEVDVDDSQDVASESEVKSMPTFQFFKKGQKVGEFSGANKEKLEATINELV
modifications: synthetic peptide motif
For B1, the “% monomer (232 hrs)” value came to 93% under setting [1]; 93% under setting [2]; 92% under setting [3]; 93% under setting [4]; 92% under setting [5]. Besides, the “% monomer (Time 0)” value under setting [1] amounted to 93%; the “% monomer (Time 0)” value under setting [2] was found to be 94%; the “% monomer (Time 0)” value under setting [3] came out at 94%; the “% monomer (Time 0)” value under setting [4] came out at 95%; the “% monomer (Time 0)” value under setting [5] is given as 95%. In addition, the SEC % monomer amounted to 89% (Ox:Red 0:100 mixture); 70% (Ox:Red 25:75 mixture); 52% (Ox:Red 50:50 mixture); 36% (Ox:Red 75:25 mixture); 22% (Ox:Red 100:0 mixture). In addition, the “decrease in percent monomer” value (time 0 to 232 hours, 25° C., PBS, 70-110 mg/ml, red fraction removed) was found to be 2%.

For the origin of these results see US20230071765A1, “COMPOSITIONS HAVING THIOREDOXIN ACTIVITY AND RELATED METHODS” (ORPRO THERAPEUTICS, INC., priority 2020, published 2023).
